Source: US20110027291A1, “METHODS, SYSTEMS AND PRODUCTS FOR PREDICTING RESPONSE OF TUMOR CELLS TO A THERAPEUTIC AGENT AND TREATING A PATIENT ACCORDING TO THE PREDICTED RESPONSE” (MERRIMACK PHARMACEUTICALS, INC., priority 2008, published 2011)

Key:
ErbB2 [1] = biological target: T1, ErbB2 (Homo sapiens, UniProt P04626); assay: Lapatinib rate constants from the literature: ErbB2 (Table 13); assay type: binding
ErbB2 [2] = biological target: T1, ErbB2; conditions: cited from earlier work
[3] = biological target: T2, ErbB1 phosphorylation (pErbB1) in NCI-ADRr cells (Homo sapiens, UniProt P00533); assay: ErbB1 phosphorylation dose response curves for ErbB ligands (ELISA); assay type: cell-based
T2 construct: endogenous in cells; host or cells: NCI-ADRr (ADRr) cells
Procedure: (§1) For stimulation of the cells, the cells are seeded in 100 μl complete media at 35,000 cells per well in 96 well tissue culture plates and incubated overnight in a humidified atmosphere of 5% CO2, 95% air and 37 degrees Celsius. Cells are then switched to serum free media: RPMI-1640 media (Gibco) supplemented with, 2 mM L-glutamine (Gibco) and units/mL Pen-Strep (Gibco). Starved cells are incubated in a humidified atmosphere of 5% CO2, 95% air and 37 degrees Celsius for 20-24 hours prior to stimulation.
(§2) Levels of protein phosphorylation in the stimulated cells are measured by ELISA. Capture antibodies against ErbB1 (R&D Systems, AF231), ErbB2 (R&D Systems, MAB1129), ErbB3 (R&D Systems, MAB3481) and AKT (Upstate, 05-591MG) are incubated in 384 well black flat-bottom polystyrene high-binding plates (Corning, Catalog #3708) overnight at room temperature. The ELISA plates are blocked with 2% bovine serum albumin (BSA) and phosphate buffered saline (PBS) for one hour then incubated with lysates diluted in 2% BSA, 0.1% Tween-20 and PBS for two hours at room temp. In between each incubation, the plates are washed three times with 0.05% Tween-20 in PBS. ELISAs for measuring phospho-ErbB1, -ErbB2 and -ErbB3 are incubated with phospho-tyrosine horseradish peroxidase (HRP) linked monoclonal antibody (R&D Systems, HAM 1676) for two hours. ELISAs measuring phospho-AKT are incubated with primary serine 473 specific anti-phospho AKT mouse monoclonal antibody (Cell Signaling Technologies, Catalog #5102) for 2 hours, then incubated with Streptavidin-HRP(R&D Systems, Catalog #DY998) for 30 minutes. All ELISAs are visualized with SuperSignal ELISA Pico Chemiluminescent Substrate (Pierce, Catalog #37069) and luminescent signal is measured using a luminometer.

[4] = test system: ErbB2 phosphorylation (pErbB2) in NCI-ADRr cells; assay: ErbB2 phosphorylation dose response curves for ErbB ligands (ELISA); assay type: cell-based
Procedure: as §1, §2

[5] = test system: ErbB3 phosphorylation (pErbB3) in NCI-ADRr cells; assay: ErbB3 phosphorylation dose response curves for ErbB ligands (ELISA); assay type: cell-based
Procedure: as §1, §2

[6] = test system: AKT phosphorylation (pAKT) in NCI-ADRr cells; assay: AKT phosphorylation dose response curves for ErbB ligands (ELISA); assay type: cell-based
Procedure: as §1, §2

ErbB1 = ErbB1 (Homo sapiens, UniProt P00533); assay: ErbB signaling computational model: BTC ligand binding parameters; conditions: model parameter
Source text: (§3) The ErbB receptor signaling network model consists of three receptors (ErbB1, ErbB2, ErbB3), a receptor phosphatase, phosphatidylinositol 3-kinase (PI3K, which binds the receptors) and components of the PI3K-AKT cascade (phosphatidylinositol bisphosphate, PIP2, phosphoinositide-dependent protein kinase, PDK1, PTEN deleted from chromosome 10, PTEN, serine, threonine protein kinase also known as protein kinase B, AKT, Protein phosphatase 2A, PP2A) (see Table 8 below).
(§4) Included in the model were the ligand-induced dimerization, internalization, recycling, and degradation as described in the literature for all homo- and heterodimers (Hendriks, B. S. et al. (2003) J. Biol. Chem. 278:23343-23351; Wang, Z. et al. (1999) Mol. Biol. Cell 10:1621-1636). Receptor dimer stabilities, using the relative scale as published in Shankaran, H. et al. (2008) Biochem. Biophys. Res. Commun. 371:220-224, were implemented, where the coexpression of […] biases signaling to the cell surface and retards signal downregulation and where the simultaneous coexpression of ErbB1-3 leads to an abundance of ErbB2-ErbB3 heterodimers. Therefore, ErbB3-containing dimers internalize and degrade slower than do ErbB1 homodimers or ErbB1-ErbB2 heterodimers. Constitutive dimerization was also included, although ligand-free dimers were assumed not to trigger any downstream signaling (Yu, X. et al. (2002) Mol. Biol. Cell 13:2547-2557) and to remain at the cell surface. ErbB ligands bind with different affinities to ErbB homo- and heterodimers (Teramura, Y. et al. (2006) EMBO J. 25:4215-4222), but to reduce the number of kinetic parameters to be estimated and to describe the experimental data with the simplest model possible, we constrained the binding affinity of the ligands to ErbB homo- and heterodimers to be the same.
(§5) Many of the reaction rate parameters are unknown in the cell system we studied and therefore had to be estimated (see Table 10 below). To avoid biasing the starting point, all parameters were set to default values (Aldridge, B. B. et al. (2006) Nat. Cell. Biol. 8:1195-1203). The number of parameters estimated was limited by performing the estimation in two stages: first the model was calibrated against the experimentally observed ErbB receptor phosphorylation data; second, the parameters sensitive to AKT phosphorylation were optimized against the experimental data. Estimated values were only accepted if the parameters were constrained under multiple parameter runs using a genetic algorithm with a population size of 50 and 25 generations (Mathworks, MA). […] The normalized sensitivities of each species were integrated over the two hour stimulation, and parameters with normalized, integrated sensitivities greater than an arbitrary threshold of 1000 are listed in Table 11 below. As mentioned above, ErbB4 phosphorylation was not included into the parameter estimation because the cell line studied had barely detectable ErbB4 (see Table 3 below). ErbB4 reactions are parameterized according to ErbB3 reactions.

ErbB3 = ErbB3 (Homo sapiens, UniProt P21860); assay: ErbB signaling computational model: HRG ligand binding parameters; conditions: model parameter
Source text: as §3, §4, §5

ErbB1 on NCI-ADRr cells = ErbB1 on NCI-ADRr cells (UniProt P00533); assay: cell-based or functional assay
ErbB3 on NCI-ADRr cells = ErbB3 on NCI-ADRr cells (UniProt P21860); assay: cell-based or functional assay

CS(=O)(=O)CCNCc1ccc(-c2ccc3ncnc(Nc4ccc(OCc5cccc(F)c5)c(Cl)c4)c3c2)o1 [lapatinib]
kfLapatinib_4: Lapatinib inhibitor binding to 2-2 dimers (ErbB2 [1]; 2-2 dimers): 3.00E−12 molecules^−1 sec^−1 | kfLapatinib_2: Lapatinib inhibitor binding from ErbB2 or 2-3 dimers (ErbB2 [1]; unit conversion from M^−1s^−1 /(Vmedia * Av/Num_cells)): 1.50E−12 molecules^−1 sec^−1 | Lapatinib inhibitor binding from ErbB2 or 2-3 dimers (on-rate before unit conversion) (ErbB2 [2]): Unit conversion calculated as 2.95e3 M^−1s^−1/ | krLapatinib_2: Lapatinib inhibitor dissociation to ErbB2 or 2-3 dimers (ErbB2 [2]): 3.83e-05 s⁻¹

AR: amphiregulin, ErbB1 binding ligand
EC50 [3]: 37 nM | pErbB1 % stimulation at 5 min relative to maximum [3]: 95.0% | pErbB2 % stimulation at 5 min relative to maximum [4]: 54.0% | EC50 [5]: 380 nM | pErbB3 % stimulation at 5 min relative to maximum [5]: 17.0% | pAKT % stimulation at 5 min relative to maximum [6]: 28.0%

BTC: betacellulin, ErbB ligand which binds primarily to ErbB1
EC50 [3]: 5.7 nM | EC50 [5]: 100 nM | kf3: BTC binding to E1 (ErbB1): 5.00 × 10^−11 molecules-1 sec-1 | kr3: BTC dissociation from E1 (ErbB1): 0.001 s⁻¹ | kf5: BTC binding to E1 heterodimers (ErbB1; E1 heterodimers): 5.00 × 10^−11 molecules-1 sec-1 | kf4: BTC binding to E1 homodimers (ErbB1; E1 homodimers): 5.00 × 10^−11 molecules-1 sec-1 | kf129: BTC binding in the endosome (ErbB1; endosome): 3.8 molecules-1 sec-1

Epiregulin: epiregulin, ErbB ligand
pErbB1 % stimulation at 5 min relative to maximum [3]: 9.0% | pErbB2 % stimulation at 5 min relative to maximum [4]: 18.0% | pAKT % stimulation at 5 min relative to maximum [6]: 11.0%

HB-EGF: heparin-binding epidermal growth factor, ErbB ligand
EC50 [3]: 21 nM | pErbB1 % stimulation at 5 min relative to maximum [3]: 87.0% | EC50 [4]: 230 nM | pErbB2 % stimulation at 5 min relative to maximum [4]: 94.0% | pErbB3 % stimulation at 5 min relative to maximum [5]: 32.0% | pAKT % stimulation at 5 min relative to maximum [6]: 20.0%

HRG1-β: heregulin, ErbB receptor ligand which binds to ErbB3 and ErbB4
pErbB1 % stimulation at 5 min relative to maximum [3]: 0.0% | EC50 [4]: 7 nM | pErbB2 % stimulation at 5 min relative to maximum [4]: 43.0% | EC50 [5]: 9.9 nM | pErbB3 % stimulation at 5 min relative to maximum [5]: 100.0% | EC50 [6]: 1.9 nM | pAKT % stimulation at 5 min relative to maximum [6]: 100.0% | kr1: HRG dissociation from E3 (ErbB3): 0.001 s⁻¹ | kf2: HRG binding to E3:E2 dimers (ErbB3; E3:E2 dimers): 5.00 × 10^−11 molecules-1 sec-1 | kr2: HRG dissociation from E3:E2 dimers (ErbB3; E3:E2 dimers): 0.001 s⁻¹ | kf127: HRG binding in the endosome (ErbB3; endosome): 3.8 molecules-1 sec-1 | kf1: HRG binding to E3 or E4 (ErbB3; unit conversion from 1e5M-1s-1): 5.00 × 10^−11 molecules-1 sec-1

TGFα: transforming growth factor alpha, ErbB1 binding ligand
EC50 [3]: 30 nM

betacellulin (from UniProt P35070 32-111) (ligand)
EC50 [nM] of pErbB1 dose response, NCI-ADRr cells (ErbB1 on NCI-ADRr cells): 5.7 nM | EC50 [nM] of pErbB3 dose response, NCI-ADRr cells (ErbB1 on NCI-ADRr cells): 100 nM

heparin-binding epidermal growth factor (from UniProt Q99075 63-148) (ligand)
EC50 [nM] of pErbB1 dose response, NCI-ADRr cells (ErbB1 on NCI-ADRr cells): 21 nM | EC50 [nM] of pErbB2 dose response, NCI-ADRr cells (ErbB1 on NCI-ADRr cells): 230 nM | pAKT, % stimulation at 5 min relative to maximum, NCI-ADRr cells (ErbB1 on NCI-ADRr cells): 20% | pErbB1, % stimulation at 5 min relative to maximum, NCI-ADRr cells (ErbB1 on NCI-ADRr cells): 87% | pErbB2, % stimulation at 5 min relative to maximum, NCI-ADRr cells (ErbB1 on NCI-ADRr cells): 94% | pErbB3, % stimulation at 5 min relative to maximum, NCI-ADRr cells (ErbB1 on NCI-ADRr cells): 32%

transforming growth factor alpha (from UniProt P01135 40-89) (ligand)
EC50 [nM] of pErbB1 dose response, NCI-ADRr cells (ErbB1 on NCI-ADRr cells): 30 nM

B1: Epigen (ligand, UniProt Q6UW88 24-104, looked up)
chain: AVTVTPPITAQQGNWTVNKTEADNIEGPIALKFSHLCLEDHNSYCINGACAFHHELEKAICRCFTGYTGERCEHLTLTSYA
pAKT, % stimulation at 5 min relative to maximum, NCI-ADRr cells (ErbB1 on NCI-ADRr cells): 11% | pErbB1, % stimulation at 5 min relative to maximum, NCI-ADRr cells (ErbB1 on NCI-ADRr cells): 12% | pErbB2, % stimulation at 5 min relative to maximum, NCI-ADRr cells (ErbB1 on NCI-ADRr cells): 25% | pErbB3, % stimulation at 5 min relative to maximum, NCI-ADRr cells (ErbB1 on NCI-ADRr cells): 3% | pErbB1 % stimulation at 5 min relative to maximum [3]: 12.0% | pErbB2 % stimulation at 5 min relative to maximum [4]: 25.0% | pErbB3 % stimulation at 5 min relative to maximum [5]: 3.0% | pAKT % stimulation at 5 min relative to maximum [6]: 11.0%

B2: heregulin HRG1-β (ligand, UniProt Q02297-6 177-241, looked up)
chain: SHLVKCAEKEKTFCVNGGECFMVKDLSNPSRYLCKCPNEFTGDRCQNYVMASFYKHLGIEFMEAE
EC50 [nM] of pAKT dose response, NCI-ADRr cells (ErbB3 on NCI-ADRr cells): 1.9 nM | EC50 [nM] of pErbB2 dose response, NCI-ADRr cells (ErbB3 on NCI-ADRr cells): 7 nM | EC50 [nM] of pErbB3 dose response, NCI-ADRr cells (ErbB3 on NCI-ADRr cells): 9.9 nM | pAKT, % stimulation at 5 min relative to maximum, NCI-ADRr cells (ErbB3 on NCI-ADRr cells): 100% | pErbB1, % stimulation at 5 min relative to maximum, NCI-ADRr cells (ErbB3 on NCI-ADRr cells): 0% | pErbB2, % stimulation at 5 min relative to maximum, NCI-ADRr cells (ErbB3 on NCI-ADRr cells): 43% | pErbB3, % stimulation at 5 min relative to maximum, NCI-ADRr cells (ErbB3 on NCI-ADRr cells): 100%

B3: amphiregulin (ligand, UniProt P15514 101-198, looked up)
chain: SVRVEQVVKPPQNKTESENTSDKPKRKKKGGKNGKNRRNRKKKNPCNAEFQNFCIHGECKYIEHLEAVTCKCQQEYFGERCGEKSMKTHSMIDSSLSK
EC50 [nM] of pErbB1 dose response, NCI-ADRr cells (ErbB1 on NCI-ADRr cells): 37 nM | EC50 [nM] of pErbB3 dose response, NCI-ADRr cells (ErbB1 on NCI-ADRr cells): 380 nM | pAKT, % stimulation at 5 min relative to maximum, NCI-ADRr cells (ErbB1 on NCI-ADRr cells): 28% | pErbB1, % stimulation at 5 min relative to maximum, NCI-ADRr cells (ErbB1 on NCI-ADRr cells): 95% | pErbB2, % stimulation at 5 min relative to maximum, NCI-ADRr cells (ErbB1 on NCI-ADRr cells): 54% | pErbB3, % stimulation at 5 min relative to maximum, NCI-ADRr cells (ErbB1 on NCI-ADRr cells): 17%
